Test results as given in the nanobody polyreactivity screen of Harvey et al. (2022).

Test: yeast display, Sf9 membrane polyspecificity reagent, FACS + sequencing; frameworks hold sequencing errors
In short: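 Nanobodies came from a synthetic yeast display library in Saccharomyces cerevisiae BJ5465, induced with galactose for 36–48 hours and stained for 1 hour at 4 °C with 10% biotinylated, detergent-solubilized Sf9 membrane reagent. Cells were enriched on streptavidin microbeads and then FACS-sorted, with low and high (top ~1%) gates set on anti-HA fluorescence for expression and streptavidin fluorescence for reagent binding. Each polyreactivity label reflects the gate a clone came from. Genes were amplified by colony PCR, sequenced by MiSeq 2 × 250 and filtered by CDR length.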

Row | Sequence | polyreactivity (PSR sort gate)
1 | QVQLVESGGGLVQAGGSLRLSCAASGFTFSYYAMGWYRQAPGKERELVAAITSGGSTYYADYVKGRFTISRDNAKNTVYLQMNRLKPEDTAVYYCNADGWYYPTDDYWGQGTQVTVSS | low polyreactivity
2 | QVQLVESGGGLVQAGGSLRLSCAPSGRTFGYNAMGWYRQAPGKESELVAGISSSDASTYYADSVKGRFTISRDNAKNTVYLQMNSLKPEDTAVYYCAATFGFFYYQYDYWGQGTQVTVSS | low polyreactivity
3 | QVQLVESGGGLVQAGGSLRLSCSASGSTFRIYAMGWYRQAPGKERELVAAISWSSGSTYYADSVKGRFTISRDNAKKSVYLQMNSLKPEDTAVYYCATYARRSGYYYWGQGSQVTVSS | high polyreactivity
4 | QVQIVESGGALVQAGGSLRLSCAASGSTHGNAMGWYRQAPGKERELVAAISLNTGSTYYADSVKGRFTISRDNAKNTVYLQMNSLKPEDTAVYYCAAGGTARDDSWGQGTQVTVSS | low polyreactivity
5 | QVQLVESGGGLVQAGGSLRLSCAASGFSFRYYAMGWYRQAPGKERELVAAISSSGTRTYYADSVKGRFTISRDNATTTVYLQMNSLKPEDTAVYYCNAGSPTSTVDYWGQGTQVTVSS | high polyreactivity
6 | QVQLVESGGGLVQAGGSLRLSCAASGSTFSPYAMGGSRQAPGKEREVVAAINSGSSTNYADSVKGRFTISRDNAKNTVYFQMNSLKPEDTAVYYCAADGQLPPRGILASWEFDYWGQGTQVTVSS | low polyreactivity
7 | QVQLVESGGGLVQAGGSLRLSCAASGFTFSRNVMGWYRQAPGKERELVADITLSGASTYYADSVKGRFTISRDNAKNTVYLQMNSLKPEDTAVYYCAADPYHWRCGWRHDYWGQGTQVTVSS | low polyreactivity
8 | QVQLVESGGGLVQAGGSLRLSCAASGLTFTTYAMGWYIPAPGKDRELVSAINYRGTSSYYADSVKGRFTISRDNAKKTVYLQINSLKPEDTAVYYCNARQTRSSRINYAEGIYNFWGQGTQVTVSS | high polyreactivity
9 | QVQLVESGGGLVQAGGSLRLSCAASGSIFRYYVMGWYRQAPGKERELVAAISSGGRTYYADSVKGRFTISRDNAKNTVYLQMNSLKPEDTAVYYCAAGEPTRGDYWGQGTQVTVSS | high polyreactivity
10 | QVQLVESGGGLVQAGGSLRLSCAASGLIFGYYAMGWYRQAPGTEREFVAAIDGSDGTTYYADSVKGRFTISRDNAKNTVYLQMNSLKPEDTAVYYCNAESSSYSCDMGYDYWGQGTQVTVSS | low polyreactivity
11 | QVQLVESGGGLVQAGGSLRLSCAASGRIFIYKAMGWYRQAPGKERELVAAISSSGTSTYYADSVKGRFTISRDNAKNTVYLQKNSLKPEDTAVYYCNAVYNYRWYSQGYYWGQGTQVTVSS | high polyreactivity
12 | QVQLVESGGGLVQAGGSLRLSCAASGSIFKLNAMGWYRQAPGKERELVAVINKSGGRTYYADSVKGRFTISRDNAKNTVYFQMNSLKPEDTAVYYCNAVSKLAVNLDYWGQGTQVTVSS | high polyreactivity
13 | QVQLVESGGGLVQAGGSLRLSCAASGSIFQVYAMGWYRQAPGKEREFVAAISYSGGGTYYADSVKGRFTISRDTAKNTVYLQMNSLKPEDSAVYYCAATEQYGRDSWSSYRIFPPYDDWGQGTQVTVSS | low polyreactivity
14 | QGQHVESGGGLVQAGGSLRLSCAASGLTFWVYAMGWYRQPRGKERELVAVITNGGRTNYADSVKGRFTISRDNAKNTVYLLMNSLKPEDSAVYYCARPNLLSGDYWGQGTQVTVSS | high polyreactivity
15 | HVQLVESGGGLVQAGGSLRLSCAASGSTFILNTMGWYIQAPGKERKLVAAITRRGSSTYYADSVKGRFTISRDNAKNTGYLQMNSLKPEDTAVYFCAAFSYNLGMDYWGQGTKVTVSS | high polyreactivity
16 | QVQLVESGGGLVQAGGSLRLSCAASGITFGNYAMGWYSQAPGKERELVASFSWNVGSTYYADSVKGRFTISRDNAKNTVYLQMNSLKPEDTAVYYCARGYDRPRVATFHRFDYWGQGTQVTVSS | low polyreactivity
17 | QVQLEESGGGLVQAGGSLRLSCAASGRIFFKYSMGWYRQAPGKERELVATISSSTGSTYYADSVKGRFTISRDNAKNTDYLQMNSLKPEDTAVYYCNARVRTQQRWVDYWGQGTQVTVSS | high polyreactivity
18 | QVQLVESGGGLVQAGGSLRLSCAASGIIFVYYDMGWYRQAPGKERELVASISRGGSTNYADSVKGRFTISRDNAKNTVYLQMNSLKPEDTAVYYCAAGSYSILVHLVRYYYWGQGTQVTVSS | high polyreactivity
19 | QVQLVESGGGLVQAGGSLRLSCAASGRTLYRYAMGWYRQAPGKERELVAVISWNAVGTYYADSVKGRFTISRDNAKNTVYLQMNSLKPEDTAVYYCAARKRVASQGYIRYNYWGQGTQVTVSS | high polyreactivity
20 | QVQLVESGGGLVQSGGSLRLSCAASGRIFYYNAMGWYRQAPGKERELVAAITSSSGSSTYYADSVKGRFTISRDNAKNTVYLQMNSLKPEDTAVYYCNAASLDRFFGYRYNDDDYWGQGTQVTVSS | low polyreactivity
21 | QVQLVESGGGLVQAGRSLRLSCAASGFTLTPYAMGWYRQAPGKERELVARISDSGDSTYYADSVKGRFTMSRDNAKNTVYLQMNRLKPEDTAVYYCATDWNAGIDYYRFYADEYNYWGQGSQVTVSS | low polyreactivity
22 | QVQLVESGGGLVQAGGSLRLSCAASGRTINRYAMGCYRHAPGKERELVAAINSVGSTYYADSVKGRFTISRDNAKYTVYLQMNSLKPEDTAVFYCNAVQGSRFGYWGEGTQVTVSS | high polyreactivity

Row | Sequence | polyreactivity (PSR sort gate)
23 | QVQLVESRGGLVQAGGSLRLSCAASGRTFQYYAKGWYRQERGKVRELVAAISGSTSRTYYADSVKGRFTISRDNAKNTVYLQMNSLKPEDTAVSYCAAALYRLYITSYYYWGPGTQVTVSS | high polyreactivity
24 | QVQLVESGGGLVQAGGSLRLSCPASGLTFGWYAMGWYRQAPGKERELVASITRRSGSTYYADSVKGRFTISRDNAKNTVYLQMNSLKPEDTAVYFWAARSRGTTRFDYWGQGTQVTVSS | high polyreactivity
25 | QVQLVESGGGLVQSGGSLRLRCAASGRIFGGYAMGWYRQAPGKERELVAAISWRGGSTSYADSVKGRFTISRDNAKNTVYLQMNSLKPEDTAVYYCAKYWGHTYGSWGQGTQVTVSS | high polyreactivity
26 | QVQLEESGGGLVQAGGSLRLSCAASGSTFRDNALGWYRQAPGKETELVAGITRGGITNYADSVKGRFTISRDNAKNTVYLQMNSLIPEDTAVYYCAAEVTGTYYDYDYWGQGTQVTVSS | low polyreactivity
27 | QVPLVESGGGLVQAGGSLRISCAACGIIFFPYAMGWYRQAPGKEREFVAAITSRGGSTYYADSVKGRFTISRDNAKNTVYLQMNSLKPEDTAVYFCAADHLGRARGPWRYNYWGQGTQVTVSS | low polyreactivity
28 | QVQLVESGGGLVLAGGSLLLSCAAAGSTFSQNAMGWYRQAPGKERELVAAITSGGITYYADSVKGRFTISRDNAKNSVYLQMNSLKPEDTAVYYCNADPIVSPYRLWTVTYYYWGQGTQVTVSS | low polyreactivity
29 | QVQLEESGGRLVQAGGSLRLTSAASGGIFSVYAMGWYRQAPGKERQLVASITVSGGSTSYADSVKGRFTISRDNAKNTVYLQMKSLKPEDTAVYYCAVYQYVGYTMDYWGQGTKVTVSS | low polyreactivity
30 | QVQLVESGGGLVHAGGSLSLICAASGITFDVNAMGWYRQAPGKERELVAAITAGGNTYYADSVKGRFTISRDNAKNTVYLQMNSLKPEDTAVYYCAAVSTSLYWAGYDYWGQGTKVTVSS | low polyreactivity
31 | QVQLQESGGGLVQAGGSLRLSCAASGTISTIEPMGWYRQAPGKERELVACIGAGTITNYADSVKGRFTISRDNDTVYLQMNSLKPEDTAVYYCNADGWYALYEWLAVSGYYWGQGTQVTVSS | low polyreactivity
32 | QVQIVESGGGLVQAGGSLRLSCAASGRTFNQYAMGWYRQAPVKERELVAAISASGGNTYYADSVKGRFTISRDNAKNNVYVQMNSLKQEDTEVYYCADKQSSSRYYGNDYWGQGTQVTVSS | high polyreactivity
33 | QVQLVESGGGLVQAGGSLRLSCAASGRTFYVNTMGWYRQAPGKERELVAAITSRGGRTHYADSVKGRFTISRDNAKNNVYLQMNSLKPEDTAVYYCAAKITAYWRYISDYGYWGQGTQVTVSS | high polyreactivity
34 | QVQLVESGGGLVQAGGSLRLSCAASGFIFWGNTMGWYRQAPGKERELVAAISSSGGRTYYADSVKGRFTISRDNAKNTVYLQMNSLKPEDTAVYYCAKVRRSDYDSDYWGQGTQVTVSS | high polyreactivity
35 | QVQLVESGGGLVQAGGSLRLSCAASGIIIVGNSMGWYRQAPGKQRELVASINSGGSTYYADSVKGRFTISRDNAKNTVYLQMNSLKPEDTAVYDCAVEEDRYYYDDYDYCGQGTQVTVSS | low polyreactivity
36 | QVQLVESGGGLVQAGGSLRLSCAASGSIFIFNAMVWYRQAPGKEREFVARIRRDSSTYYADSVKGRFTISRDNAKNTVYLQMNSLKPEDTAVYYCAAKRVYRRVELNSWGQGTQVTVSS | low polyreactivity
37 | QVQLVESGGGLVKAGGSLRLSCGASGSIIVRYAMGWYRQAPGKERELVASISKRGGSTYYADSVKGRFTISRDNAKNTVYLQMNSLKPEDTEVYYCAAVCYYLVKFDYWGLGTQVTVSS | high polyreactivity
38 | QVQLVESGGGVVQAGGSLRLSCAASGRTFRPYAMGWYRQAPGKERELVAAIDSSGTSTYYADSVKGRFTISRDNAKNSVYLQMNSLKPEDTAVYYCAKAWPDHWYSRYDYWGQGTQVTVSS | low polyreactivity
39 | QVQLVESGGGLVQAGGSLRLSCAASGGIFIRYAMGSYRQAPGKERELVAAITQSGAGTNYADSVKGRFTISRDNAKNTVYLQMNSLKPEDTAVYYCAATGLPGYYAYDYWGQGTQVTVSS | low polyreactivity
40 | QVQLVESGGGLVQAGGSLRLSCAASGSTFVSNAMGWYRQAPGKERELVARITGSGGNTYYADSVKGRFTISRDNAKNTVYLQMNSLKPEDTAVYYCNADVFRKFGSPSAYKSHRYDYWGQGTQVTVSS | low polyreactivity
41 | KVQLVESGGGLVQAGGSLRLSCAASGRIFGRNAMGGYRQAPGKERELVAAINVSSGGTYYADSVKGRFTISRDNAKNTVYLQMNSLKPEDTAVYFCAARARWAGLRYTRYYYWGQGTQVTVSS | high polyreactivity
42 | QVQLVESGGGLVQAGGSLRLSCAASGLTFRGYAMGWYRQAPGKERELVAAITSSAGRTYYADSVKGRFTISRDNAKNTVYLQMNSLKPEDTAVYYCAAEYASWFGSMNYWGQGTQVTVSS | high polyreactivity
43 | QGQLVESGGGLVQAGGSLRLSCAASGSTFLTNTMGWYRHAPGKERELVAAITLRGGRTYYADSVKGRFTISRDNAKNTVYVQMNSLKPEDTAVYYCTARNYYYTSDRDYWGQGTQVTVSS | low polyreactivity
